Columns and labels:
[1] = target: T1, GST-ZO-2SGA (canine ZO-2 amino acids 575-947 in pGEX-6P-1) (Canis lupus familiaris, UniProt Q95168 575-947); assay: GST binding assay with GFP-Slug MDCK lysate, anti-Slug blot
T1 construct: also called GST-ZO2 SGA WT
T1 sequence: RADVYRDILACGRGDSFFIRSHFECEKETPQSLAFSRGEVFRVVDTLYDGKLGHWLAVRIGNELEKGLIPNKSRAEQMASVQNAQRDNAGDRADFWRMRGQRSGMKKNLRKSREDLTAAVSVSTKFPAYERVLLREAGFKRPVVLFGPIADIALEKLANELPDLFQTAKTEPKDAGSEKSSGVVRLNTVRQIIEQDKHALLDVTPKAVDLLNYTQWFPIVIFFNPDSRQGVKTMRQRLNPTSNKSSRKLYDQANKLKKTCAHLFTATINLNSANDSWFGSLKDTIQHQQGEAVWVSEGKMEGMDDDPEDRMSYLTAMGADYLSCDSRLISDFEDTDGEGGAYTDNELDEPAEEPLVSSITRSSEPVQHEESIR

[2] = target: T2, canine ZO-3 SGA domain (amino acids 450-899) in bait vector pGBKT7 (canine, UniProt P04386 1-147; O62683 450-898); assay: yeast two-hybrid, QDO growth and beta-galactosidase activity
T2 construct: Yeast two-hybrid bait; also called canine ZO-3 SGC domain
Text: (§1) All experimental details were according to the manufacturer's protocols. Clones were screened at high stringency with a quadruple (-Trp, -Leu, -His, -Ade) dropout media and then tested for α- and β-galactosidase activity. Library plasmids with the cDNA inserts from positive clones were isolated and sequenced, resulting in the identification of the entire Slug cDNA. The interaction was retested by transforming this Slug cDNA plasmid with bait vectors carrying the human ZO-1 SGA domain (amino acids 490-883), the canine ZO-2 SGA (amino acids 575-945), SH3 (amino acids 575-713), as well as the GA domain (amino acids 714-945) or the canine ZO-3 […] domain (amino acids 450-899). Empty pGBKT7 and a bait plasmid with […] cDNA (Clontech) were used as negative controls.
(§2) The interaction was retested by transforming this Slug cDNA plasmid with bait vectors carrying the human ZO-1SGA domain (amino acids 490-883), the canine ZO-2SGA (amino acids 575-945), SH3 (amino acids 575-713), GA domain (amino acids 714-945), as well as the canine ZO-3SGA domain (amino acids 450-899). Interactions were determined by monitoring the growth of the co-transformed yeasts in on selective media & β-galactosidase activity. […]

[3] = target: T3, human ZO-1 SGA domain (amino acids 490-883) in bait vector pGBKT7 (human, UniProt P04386 1-147; Q07157 490-883); assay: as above
T3 construct: Yeast two-hybrid bait
Text: as §1, §2

[4] = target: T4, HA-Slug (full length mouse Slug in pDHA, two HA tags) (Mus musculus, UniProt P97469 1-269, 35S-methionine labelled in Example 5); assay: GST pull-down of 35S-labeled in vitro translated protein, autoradiography
T4 construct: also called pDHA-Slug; HA tagged Slug; not shown: the two HA tags of the pDHA vector and any vector linker
T4 sequence: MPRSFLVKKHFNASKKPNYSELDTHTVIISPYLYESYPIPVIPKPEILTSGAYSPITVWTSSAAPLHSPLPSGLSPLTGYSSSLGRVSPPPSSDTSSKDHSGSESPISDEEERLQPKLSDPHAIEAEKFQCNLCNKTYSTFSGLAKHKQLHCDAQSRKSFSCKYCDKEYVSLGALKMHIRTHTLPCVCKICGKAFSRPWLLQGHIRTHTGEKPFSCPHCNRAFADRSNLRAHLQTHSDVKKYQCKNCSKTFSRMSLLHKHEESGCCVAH
Procedure: In vitro translation was carried out using Quick Coupled T7 TNT System (Promega, Madson, Wis.) according to the manufacturers protocol. Slug, EX and ZNF cloned into the pDHA vector were in vitro translated and labeled with 35S Methionine. GST, GST-ZO-2 SGA, GST-ZO-2 SH3, GST-20-2 GA, GST-ZO-2 AP and GST-ZO-2 P were produced, purified as described above and were bound to glutathione Sepharose-4B (Amersham Biosciences, Piscataway, N.J., USA) following standard protocols.
Purified GST-fusion proteins were quantified by SDS-PAGE by comparing with known amounts of BSA as standards. 20 μl bed volume of beads carrying 20 μg of GST or the above GST fused ZO-2 truncated proteins were incubated with 10 μl of in vitro translated 35S Methionine labeled, HA tagged Slug, EX or ZNF and topped up with 200 μl of buffer B (PBS with 1% TX-100 PBS, 1 mM EDTA, Complete EDTA free protease inhibitor cocktail (Roche Diagnostics, Indianapolis, Ind.), 1 mM dithiothreitol (DTT), 300 μg/ml Benzamiidine) for 3 h at 4° C. The beads were washed three times with 500 μl of buffer B each time. This was followed by suspension in 30 μl of SDS sample buffer and the analysis of the bound proteins by running through a 15% SDS-PAGE gel and autoradiography, with a 2 to 3 day exposure period. To reciprocate the binding, GST, GST-Slug and GST-ZNF were used as baits. […]

[5] = target: T5, MYC tagged GA domain of canine ZO-3 (amino acids 606-899), in vitro translated (canine, UniProt O62683 606-898); assay: GST pull-down of in vitro translated MYC-tagged GA domain, anti-myc blot
T5 construct: range 606-899; also called MYC-ZO-3GA; ZO-3GA; not shown: MYC tag from pGBKT7
T5 sequence (looked up): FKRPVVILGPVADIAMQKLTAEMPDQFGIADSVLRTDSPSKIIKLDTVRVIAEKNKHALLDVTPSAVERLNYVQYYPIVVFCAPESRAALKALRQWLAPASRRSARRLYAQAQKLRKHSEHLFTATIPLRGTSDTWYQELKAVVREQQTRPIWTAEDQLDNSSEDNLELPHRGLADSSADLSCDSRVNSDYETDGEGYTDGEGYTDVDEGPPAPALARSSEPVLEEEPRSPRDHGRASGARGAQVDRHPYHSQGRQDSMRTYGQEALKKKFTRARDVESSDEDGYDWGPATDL

B1: GFP-Slug (full length mouse Slug in pEGFP, stably expressed in MDCK cells) (other)
chain: T4 sequence
notes: not shown: EGFP of the pEGFP vector and its linker to Slug
B1: binds [1].

B2: full-length mouse Slug fused to the GAL4 transactivator domain (library clone 30A) (other, not shown: small tags and cut ends)
chain: T4 sequence
notes: Yeast two-hybrid prey, full length; also called pGADT7-Slug
B2: no binding [2]; no binding [3].

B3: GST-ZO-2P (proline rich domain, canine ZO-2 amino acids 948-1174 in pGEX-6P-1) (other)
chain: KPSPEPRAQMRRAASRDQLRDSSPPPAFKPEPPKAKTQNREESFDISRSHDYKSNPSAVAGNEVSGASTRSCPPPIAAKPSFGRSILKPSTPVPSPESEEVGEGSEEQEGAPKSVLGKVKIFEKMDHKARLQRMQELQEAQNARIEIAQKHPDIYAVPIKTHKPDPGLSQHTSSRPPEPQKGPSRLYQDPRGSYGSDAEEEEYRQQLSEHSKRGYYSQPSRYRDTEL
notes: also called the P; not shown: GST of pGEX-6P-1 and its linker (PreScission site, cloning-site residues)
B3: no binding [4].

B4: GST-Slug (full length mouse Slug in pGEX4T-1) (other)
chain: T4 sequence
notes: Full length Slug; not shown: GST and the protease-site linker encoded by pGEX4T-1
B4: no binding [5].
